Experimental data reported in PMC9482650, “Quantitative fragmentomics allow affinity mapping of interactomes” (Nature Communications, 2022).

T1: ARHGEF11, O15085
T1 sequence (O15085 42-136, limits assumed, looked up): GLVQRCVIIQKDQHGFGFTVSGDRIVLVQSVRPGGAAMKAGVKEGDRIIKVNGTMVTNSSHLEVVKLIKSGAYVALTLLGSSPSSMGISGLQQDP

T2: DLG3_3, Q92796
T2 sequence (Q92796 374-475, limits assumed, looked up): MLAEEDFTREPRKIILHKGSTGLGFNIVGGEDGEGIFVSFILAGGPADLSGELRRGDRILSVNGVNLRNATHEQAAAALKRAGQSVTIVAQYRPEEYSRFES

T3: DVL3, Q92997
T3 sequence (Q92997 244-331, limits assumed, looked up): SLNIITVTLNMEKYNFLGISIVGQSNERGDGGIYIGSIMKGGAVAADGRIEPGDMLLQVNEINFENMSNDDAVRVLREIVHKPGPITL

T4: GRIP1_4, Q9Y3R0
T4 sequence (Q9Y3R0 467-571, limits assumed, looked up): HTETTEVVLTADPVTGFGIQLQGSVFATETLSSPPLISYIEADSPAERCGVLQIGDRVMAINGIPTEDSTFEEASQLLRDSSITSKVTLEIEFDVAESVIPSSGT

T5: GRIP1_5, Q9Y3R0
T5 sequence (Q9Y3R0 568-668, limits assumed, looked up): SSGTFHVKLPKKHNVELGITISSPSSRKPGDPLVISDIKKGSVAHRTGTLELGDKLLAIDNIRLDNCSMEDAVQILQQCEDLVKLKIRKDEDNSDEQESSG

T6: LIN7B, Q9HAP6
T6 sequence (Q9HAP6 88-185, limits assumed, looked up): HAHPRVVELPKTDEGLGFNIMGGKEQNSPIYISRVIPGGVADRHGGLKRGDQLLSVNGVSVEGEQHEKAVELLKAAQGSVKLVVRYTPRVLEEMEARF

T7: LNX2_2, Q8N448
T7 sequence (Q8N448 334-432, limits assumed, looked up): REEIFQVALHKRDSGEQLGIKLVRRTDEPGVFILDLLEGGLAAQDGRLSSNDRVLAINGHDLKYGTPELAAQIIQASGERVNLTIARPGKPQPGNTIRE

T8: LNX2_3, Q8N448
T8 sequence (Q8N448 463-564, limits assumed, looked up): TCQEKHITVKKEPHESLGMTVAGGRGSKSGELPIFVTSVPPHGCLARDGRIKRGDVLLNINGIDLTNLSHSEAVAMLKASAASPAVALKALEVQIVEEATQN

T9: MPP2, Q14168
T9 sequence (Q14168 180-250, limits assumed, looked up): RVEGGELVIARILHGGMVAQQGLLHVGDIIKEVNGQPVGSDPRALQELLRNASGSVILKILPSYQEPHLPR

T10: NHERF3_1, Q5T2W1
T10 sequence (Q5T2W1 4-100, limits assumed, looked up): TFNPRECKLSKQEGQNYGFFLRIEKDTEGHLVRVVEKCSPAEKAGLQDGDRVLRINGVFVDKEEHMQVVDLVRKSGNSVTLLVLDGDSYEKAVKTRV

T11: RADIL, Q96JH8
T11 sequence (Q96JH8 971-1071, limits assumed, looked up): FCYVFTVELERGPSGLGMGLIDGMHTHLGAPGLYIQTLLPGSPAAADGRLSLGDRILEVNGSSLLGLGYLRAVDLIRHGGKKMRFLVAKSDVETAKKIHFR

T12: TIAM2, Q8IVF5
T12 sequence (Q8IVF5 885-986, limits assumed, looked up): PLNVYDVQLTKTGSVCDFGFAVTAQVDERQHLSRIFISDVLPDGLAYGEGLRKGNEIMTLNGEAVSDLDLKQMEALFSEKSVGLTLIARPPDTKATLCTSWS


biological target: T1, ARHGEF11, O15085; experiment: holdup assay; design: key: below the threshold = too weak to quantify, mostly under pKd 3.1 to 4; conditions: plain residues with an end cap or a label only (N-terminal biotin on a linker: ado-ado)

Binder | pKd
RSPVATATSC [DUSP5, Q16690] | below the threshold

biological target: DLG1_2, Q12959; experiment: holdup assay; design: key: below the threshold = too weak to quantify, mostly under pKd 3.1 to 4; conditions: plain residues with an end cap or a label only (N-terminal biotin on a linker: ado-ado)
Sequence (Q12959 314-412): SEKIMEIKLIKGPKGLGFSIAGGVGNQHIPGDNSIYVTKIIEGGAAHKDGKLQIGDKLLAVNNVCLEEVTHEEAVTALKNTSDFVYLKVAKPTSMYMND

Binder | pKd
RSPVATATSC [DUSP5, Q16690] | below the threshold

biological target: T2, DLG3_3, Q92796; experiment: holdup assay; design: key: below the threshold = too weak to quantify, mostly under pKd 3.1 to 4; conditions: plain residues with an end cap or a label only (N-terminal biotin on a linker: ado-ado)

Binder | pKd
RSPVATATSC [DUSP5, Q16690] | below the threshold

biological target: T3, DVL3, Q92997; experiment: holdup assay; design: key: below the threshold = too weak to quantify, mostly under pKd 3.1 to 4; conditions: plain residues with an end cap or a label only (N-terminal biotin on a linker: ado-ado)

Binder | pKd
RSPVATATSC [DUSP5, Q16690] | below the threshold

biological target: FRMPD4, Q14CM0; experiment: holdup assay; design: key: below the threshold = too weak to quantify, mostly under pKd 3.1 to 4; conditions: plain residues with an end cap or a label only (N-terminal biotin on a linker: ado-ado)
Sequence (Q14CM0 67-160): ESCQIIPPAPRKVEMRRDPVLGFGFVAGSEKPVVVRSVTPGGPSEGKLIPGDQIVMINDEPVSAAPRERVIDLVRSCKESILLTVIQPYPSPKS

Binder | pKd
RSPVATATSC [DUSP5, Q16690] | below the threshold

biological target: GIPC2, Q8TF65; experiment: holdup assay; design: key: below the threshold = too weak to quantify, mostly under pKd 3.1 to 4; conditions: plain residues with an end cap or a label only (N-terminal biotin on a linker: ado-ado)
Sequence (Q8TF65 112-203): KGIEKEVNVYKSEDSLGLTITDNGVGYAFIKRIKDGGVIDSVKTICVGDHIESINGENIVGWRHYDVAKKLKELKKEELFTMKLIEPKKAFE

Binder | pKd
RSPVATATSC [DUSP5, Q16690] | 3.6

biological target: T4, GRIP1_4, Q9Y3R0; experiment: holdup assay; design: key: below the threshold = too weak to quantify, mostly under pKd 3.1 to 4; conditions: plain residues with an end cap or a label only (N-terminal biotin on a linker: ado-ado)

Binder | pKd
RSPVATATSC [DUSP5, Q16690] | below the threshold

biological target: T5, GRIP1_5, Q9Y3R0; experiment: holdup assay; design: key: below the threshold = too weak to quantify, mostly under pKd 3.1 to 4; conditions: plain residues with an end cap or a label only (N-terminal biotin on a linker: ado-ado)

Binder | pKd
RSPVATATSC [DUSP5, Q16690] | below the threshold

biological target: GRIP2_5, Q9C0E4; experiment: holdup assay; design: key: below the threshold = too weak to quantify, mostly under pKd 3.1 to 4; conditions: plain residues with an end cap or a label only (N-terminal biotin on a linker: ado-ado)
Sequence (Q9C0E4 544-642): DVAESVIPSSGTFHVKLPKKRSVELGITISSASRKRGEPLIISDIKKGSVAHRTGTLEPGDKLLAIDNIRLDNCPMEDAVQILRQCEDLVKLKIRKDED

Binder | pKd
RSPVATATSC [DUSP5, Q16690] | below the threshold

biological target: IL16_3, Q14005; experiment: holdup assay; design: key: below the threshold = too weak to quantify, mostly under pKd 3.1 to 4; conditions: plain residues with an end cap or a label only (N-terminal biotin on a linker: ado-ado)
Sequence (Q14005 1107-1207): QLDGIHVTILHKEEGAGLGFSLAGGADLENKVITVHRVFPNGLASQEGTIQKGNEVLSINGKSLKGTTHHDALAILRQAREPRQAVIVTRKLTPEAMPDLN

Binder | pKd
RSPVATATSC [DUSP5, Q16690] | below the threshold

biological target: IL16_4, Q14005; experiment: holdup assay; design: key: below the threshold = too weak to quantify, mostly under pKd 3.1 to 4; conditions: plain residues with an end cap or a label only (N-terminal biotin on a linker: ado-ado)
Sequence (Q14005 1229-1329): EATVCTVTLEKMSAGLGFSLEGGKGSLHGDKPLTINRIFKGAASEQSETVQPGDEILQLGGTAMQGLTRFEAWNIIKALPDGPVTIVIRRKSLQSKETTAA

Binder | pKd
RSPVATATSC [DUSP5, Q16690] | below the threshold

biological target: Inadl_2, Q8NI35; experiment: holdup assay; design: key: below the threshold = too weak to quantify, mostly under pKd 3.1 to 4; conditions: plain residues with an end cap or a label only (N-terminal biotin on a linker: ado-ado)
Sequence (Q8NI35 238-335): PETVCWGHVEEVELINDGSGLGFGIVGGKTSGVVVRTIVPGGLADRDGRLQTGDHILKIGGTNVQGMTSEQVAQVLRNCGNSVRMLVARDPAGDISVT

Binder | pKd
RSPVATATSC [DUSP5, Q16690] | below the threshold

biological target: LAP2, Q96RT1; experiment: holdup assay; design: key: below the threshold = too weak to quantify, mostly under pKd 3.1 to 4; conditions: plain residues with an end cap or a label only (N-terminal biotin on a linker: ado-ado)
Sequence (Q96RT1 other isoform, or with tags, fused parts or gaps): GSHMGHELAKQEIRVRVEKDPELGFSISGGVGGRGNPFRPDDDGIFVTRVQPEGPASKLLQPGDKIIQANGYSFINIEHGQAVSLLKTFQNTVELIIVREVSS

Binder | pKd
RSPVATATSC [DUSP5, Q16690] | below the threshold

biological target: T6, LIN7B, Q9HAP6; experiment: holdup assay; design: key: below the threshold = too weak to quantify, mostly under pKd 3.1 to 4; conditions: plain residues with an end cap or a label only (N-terminal biotin on a linker: ado-ado)

Binder | pKd
RSPVATATSC [DUSP5, Q16690] | 3.68

biological target: T7, LNX2_2, Q8N448; experiment: holdup assay; design: key: below the threshold = too weak to quantify, mostly under pKd 3.1 to 4; conditions: plain residues with an end cap or a label only (N-terminal biotin on a linker: ado-ado)

Binder | pKd
RSPVATATSC [DUSP5, Q16690] | 3.75

biological target: T8, LNX2_3, Q8N448; experiment: holdup assay; design: key: below the threshold = too weak to quantify, mostly under pKd 3.1 to 4; conditions: plain residues with an end cap or a label only (N-terminal biotin on a linker: ado-ado)

Binder | pKd
RSPVATATSC [DUSP5, Q16690] | below the threshold

biological target: MAGI2_2, Q86UL8; experiment: holdup assay; design: key: below the threshold = too weak to quantify, mostly under pKd 3.1 to 4; conditions: plain residues with an end cap or a label only (N-terminal biotin on a linker: ado-ado)
Sequence (Q86UL8 410-522): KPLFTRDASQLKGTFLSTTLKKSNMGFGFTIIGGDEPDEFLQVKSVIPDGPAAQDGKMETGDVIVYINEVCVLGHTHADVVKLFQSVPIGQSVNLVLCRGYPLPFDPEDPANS

Binder | pKd
RSPVATATSC [DUSP5, Q16690] | below the threshold

biological target: MAST2, Q6P0Q8; experiment: holdup assay; design: key: below the threshold = too weak to quantify, mostly under pKd 3.1 to 4; conditions: plain residues with an end cap or a label only (N-terminal biotin on a linker: ado-ado)
Sequence (Q6P0Q8 1099-1202): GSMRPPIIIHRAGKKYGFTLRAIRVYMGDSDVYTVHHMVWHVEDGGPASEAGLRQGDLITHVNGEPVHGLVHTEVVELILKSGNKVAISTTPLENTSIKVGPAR

Binder | pKd
RSPVATATSC [DUSP5, Q16690] | 4.22

biological target: T9, MPP2, Q14168; experiment: holdup assay; design: key: below the threshold = too weak to quantify, mostly under pKd 3.1 to 4; conditions: plain residues with an end cap or a label only (N-terminal biotin on a linker: ado-ado)

Binder | pKd
RSPVATATSC [DUSP5, Q16690] | below the threshold

biological target: T10, NHERF3_1, Q5T2W1; experiment: holdup assay; design: key: below the threshold = too weak to quantify, mostly under pKd 3.1 to 4; conditions: plain residues with an end cap or a label only (N-terminal biotin on a linker: ado-ado)

Binder | pKd
RSPVATATSC [DUSP5, Q16690] | 3.53

biological target: NOS1, P29475; experiment: holdup assay; design: key: below the threshold = too weak to quantify, mostly under pKd 3.1 to 4; conditions: plain residues with an end cap or a label only (N-terminal biotin on a linker: ado-ado)
Sequence (P29475 9-101): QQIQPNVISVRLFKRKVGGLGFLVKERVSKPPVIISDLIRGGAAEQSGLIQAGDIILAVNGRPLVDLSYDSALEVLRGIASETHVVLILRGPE

Binder | pKd
RSPVATATSC [DUSP5, Q16690] | below the threshold

biological target: PARD3_3, Q8TEW0; experiment: holdup assay; design: key: below the threshold = too weak to quantify, mostly under pKd 3.1 to 4; conditions: plain residues with an end cap or a label only (N-terminal biotin on a linker: ado-ado)
Sequence (Q8TEW0 582-685): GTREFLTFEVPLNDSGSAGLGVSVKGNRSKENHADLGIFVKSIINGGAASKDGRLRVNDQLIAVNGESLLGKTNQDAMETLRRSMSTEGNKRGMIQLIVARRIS

Binder | pKd
RSPVATATSC [DUSP5, Q16690] | below the threshold

biological target: T11, RADIL, Q96JH8; experiment: holdup assay; design: key: below the threshold = too weak to quantify, mostly under pKd 3.1 to 4; conditions: plain residues with an end cap or a label only (N-terminal biotin on a linker: ado-ado)

Binder | pKd
RSPVATATSC [DUSP5, Q16690] | below the threshold

biological target: SNX27, Q96L92; experiment: holdup assay; design: key: below the threshold = too weak to quantify, mostly under pKd 3.1 to 4; conditions: plain residues with an end cap or a label only (N-terminal biotin on a linker: ado-ado)

Binder | pKd
RSPVATATSC [DUSP5, Q16690] | below the threshold

biological target: T12, TIAM2, Q8IVF5; experiment: holdup assay; design: key: below the threshold = too weak to quantify, mostly under pKd 3.1 to 4; conditions: plain residues with an end cap or a label only (N-terminal biotin on a linker: ado-ado)

Binder | pKd
RSPVATATSC [DUSP5, Q16690] | 4.09

biological target: TJP2_1, Q9UDY2; experiment: holdup assay; design: key: below the threshold = too weak to quantify, mostly under pKd 3.1 to 4; conditions: plain residues with an end cap or a label only (N-terminal biotin on a linker: ado-ado)
Sequence (Q9UDY2 24-128): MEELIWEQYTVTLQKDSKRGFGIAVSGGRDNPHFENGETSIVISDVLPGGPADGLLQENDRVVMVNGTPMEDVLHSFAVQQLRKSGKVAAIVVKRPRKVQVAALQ

Binder | pKd
RSPVATATSC [DUSP5, Q16690] | below the threshold
